What was measured:
[1] = target: T1, rat FcRn / rat β2M expressed on cells (rat, UniProt P13599 23-366; P07151 21-119); experiment: FACS binding, Alexa488-mAb, pH 7.4
T1 construct: also called rat FcRn (cells); rat fibroblasts expressing rat FcRn
T1 sequence: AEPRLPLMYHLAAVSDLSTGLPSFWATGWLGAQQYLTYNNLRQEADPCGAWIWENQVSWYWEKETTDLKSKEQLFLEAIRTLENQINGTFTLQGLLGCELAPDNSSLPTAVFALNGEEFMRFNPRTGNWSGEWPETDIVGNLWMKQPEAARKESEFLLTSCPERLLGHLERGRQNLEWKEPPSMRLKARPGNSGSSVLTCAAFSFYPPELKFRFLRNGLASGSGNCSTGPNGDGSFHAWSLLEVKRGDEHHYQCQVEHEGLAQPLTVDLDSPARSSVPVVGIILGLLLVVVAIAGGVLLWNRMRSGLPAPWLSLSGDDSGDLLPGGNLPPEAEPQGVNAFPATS
T1 sequence (b2m): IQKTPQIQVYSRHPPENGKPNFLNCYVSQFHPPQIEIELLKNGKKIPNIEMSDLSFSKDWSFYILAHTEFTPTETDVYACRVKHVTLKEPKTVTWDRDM

[2] = target: T2, murine FcRn / murine β2M expressed on 3T3 cells (mouse, UniProt Q61559 22-365; P01887 21-119); experiment: FACS binding, Alexa488-mAb, pH 7.4
T2 construct: whole, on cells; also called mouse FcRn; 3T3 FcRn cells
T2 sequence (looked up): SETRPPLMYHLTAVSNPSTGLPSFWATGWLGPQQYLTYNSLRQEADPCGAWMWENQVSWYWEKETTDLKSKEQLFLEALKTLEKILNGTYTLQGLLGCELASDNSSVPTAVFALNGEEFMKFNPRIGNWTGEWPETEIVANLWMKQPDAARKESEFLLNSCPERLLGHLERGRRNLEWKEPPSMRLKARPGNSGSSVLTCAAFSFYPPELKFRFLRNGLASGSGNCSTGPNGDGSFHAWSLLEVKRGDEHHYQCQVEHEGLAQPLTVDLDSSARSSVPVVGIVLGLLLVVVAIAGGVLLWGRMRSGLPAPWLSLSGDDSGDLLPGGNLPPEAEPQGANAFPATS
T2 sequence (b2m, looked up): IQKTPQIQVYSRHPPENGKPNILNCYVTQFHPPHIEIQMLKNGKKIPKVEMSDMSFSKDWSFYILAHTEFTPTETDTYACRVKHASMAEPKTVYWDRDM

[3] = target: T3, soluble human FcRn (extra-cellular domain of heavy chain and β2M) (human, UniProt P55899 24-297; P61769 21-119); experiment: Biacore, FcRn on chip, pH 7.4
T3 construct: also called shFcRn; soluble hFcRn
T3 sequence (P55899 24-297 limits assumed, chain 1 of 2): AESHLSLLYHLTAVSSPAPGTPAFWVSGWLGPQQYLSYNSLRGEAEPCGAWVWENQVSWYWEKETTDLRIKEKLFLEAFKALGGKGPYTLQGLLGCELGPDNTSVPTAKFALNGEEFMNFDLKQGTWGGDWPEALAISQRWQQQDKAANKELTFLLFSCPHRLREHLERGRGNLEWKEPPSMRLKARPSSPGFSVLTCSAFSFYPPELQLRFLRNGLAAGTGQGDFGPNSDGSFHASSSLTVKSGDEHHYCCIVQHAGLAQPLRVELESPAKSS
T3 sequence (P61769 21-119 limits assumed, chain 2 of 2): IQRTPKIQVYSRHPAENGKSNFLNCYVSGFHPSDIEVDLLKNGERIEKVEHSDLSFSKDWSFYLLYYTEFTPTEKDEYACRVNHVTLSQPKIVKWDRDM

[4] = target: T4, soluble monkey FcRn (monkey (cyno), UniProt Q8SPV9 24-297; Q8SPW0 21-119); experiment: Biacore, FcRn on chip, pH 7.4
T4 construct: also called cyno
T4 sequence (Q8SPV9 24-297, chain 1 of 2): as the sequence (P55899 24-297 limits assumed, chain 1 of 2) above, with N39D, E44Q, G99S, S189G, S190N, L217M, S269T counted along it
T4 sequence (Q8SPW0 21-119, chain 2 of 2): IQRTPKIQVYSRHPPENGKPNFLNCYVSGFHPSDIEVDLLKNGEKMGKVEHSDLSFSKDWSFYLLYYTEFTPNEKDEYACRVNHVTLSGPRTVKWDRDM

[5] = target: T3, soluble human FcRn (extra-cellular …); experiment: Biacore, FcRn on chip, pH 6.0
[6] = target: T4, soluble monkey FcRn; experiment: Biacore, FcRn on chip, pH 6.0
[7] = target: T3, soluble human FcRn (extra-cellular …); experiment: Biacore, FcRn on chip, pH 7.4; pH 7.4; n = 2

B1: 3B3.11 (antibody)
heavy: VKLQESGPELVKPGASVKISCKASGYAFSRSWMNWVKQRPGQGLEWIGRIHPGDGDTNYNGKFKGKATLTVAKSSSTAYMQLSSLTSVDSAVYFCANEGSPYFDYWGQGTTLTVSSAKTTPPSVYPLAPGSAAQTNSMVTLGCLVKGYFPEPVTVTWNSGSLSSGVHTFPAVLQSDLYTLSSSVTVPSSTWPSETVTCNVAHPASSTKVDKKLE
light: DIQLTQSPTTVAASPGEKITITCSASSSISSNYLHWYQQKPGFSPKLLIYRTSNLASGVPARFSGSGSGTSYSLTIGTMEAEDVATYYCQQGSNIPLTFGAGTKLELKRADAAPTVSIFPPSSEQLTSGGASVVCFLNNFYPKDINVKWKIDGSERQNGVLNSWTDQDSKDSTYSMSSTLTLTKDEYERHNSYTCEATHKTSTSPIVKSFNKNE
notes: also called mAb 3B3.11
[1]
  binding result: no binding
[2]
  binding result: binds
[3]
  Kd: 0.16 nM
[4]
  Kd: 3.24 nM
  koff: 0.000247 s⁻¹
[5]
  Kd: 1.17 nM
  koff: 0.000176 s⁻¹
[6]
  Kd: 3.23 nM
  koff: 0.000552 s⁻¹
[7]
  koff: 1.45e-06 s⁻¹

From US20160222109A1 (DYAX, published 2016)
